Results on seven molecules are retold here after patent US20130101595A1 (AbbVie / Abbott, published 2013).

Assay [1] addresses T1, recombinant human IL-18 (rhIL-18) (human, UniProt Q14116 37-193, biotinylated (D-biotinyl-epsilon-aminocaproic acid NHS ester, 2:1 molar ratio of biotin to rhIL-18) in the BIAcore assay; not said to be biotinylated in the KG-1 assay).
T1 construct: also called full length human IL-18; biotinylated rhIL-18
Kind of assay: SPR (BIAcore), biotinylated rhIL-18 on streptavidin chip, antibody in solution. The method, then:
Real-time binding interactions between ligand (biotinylated recombinant human IL-18 (rhIL-18) immobilized on a biosensor matrix) and analyte (antibodies in solution) were measured by surface plasmon resonance (SPR) using the BIAcore system (Pharmacia Biosensor, Piscataway, N.J.). The system utilizes the optical properties of SPR to detect alterations in protein concentrations within a dextran biosensor matrix. Proteins are covalently bound to the dextran matrix at known concentrations. Antibodies are injected through the dextran matrix and specific binding between injected antibodies and immobilized ligand results in an increased matrix protein concentration and resultant change in the SPR signal.
Biotinylated rhIL-18 to be immobilized on the matrix via streptavidin was diluted in PBS running buffer (Gibco Cat. No. 14190-144, Gibco BRL, Grand Island, N.Y.) supplemented with 0.05% (BIAcore) surfactant P20 (Pharmacia BR-1000-54, Pharmacia Biosensor, Piscataway, N.J.). To determine the capacity of rhIL-18-specific antibodies to bind immobilized rhIL-18, a binding assay was conducted as follows. Aliquots of biotinylated rhIL-18 (25 nM; 10 μl aliquots) were injected through the streptavidin-coupled dextran matrix at a flow rate of 5 μl/min. Before injection of the protein and immediately afterward, PBS buffer alone flowed through each flow cell. The net difference in signal between baseline and approximately 30 sec. after completion of biotinylated rhIL-18 injection was taken to represent the binding value. Direct rhIL-18-specific antibody binding to immobilized biotinylated rhIL-18 was measured. Antibodies (20 μg/ml) were diluted in PBS running buffer and 25 μl aliquots were injected through the immobilized protein matrices at a flow rate of 5 μl/min. Prior to injection of antibody, and immediately afterwards, PBS buffer alone flowed through each flow cell. The net difference in baseline signal and signal after completion of antibody injection was taken to represent the binding value of the particular sample. Biosensor matrices were regenerated using 100 mM HCl before injection of the next sample.
On the technique in general: Surface plasmon resonance follows binding to a sensor surface in real time, without labels.

Assay [2] deals with T2, IL-18 peptide NRPLFEDMTDSDCR (SEQ ID NO: 36) (human).
T2 peptide: NRPLFEDMTDSDCR
Kind of assay: overlapping IL-18 peptide panel.

The target of assay [3] is T3, IL-18 peptide PLFEDMTDSDCRDNA (SEQ ID NO: 1) (human).
T3 peptide: PLFEDMTDSDCRDNA
Kind of assay: told in a figure legend; 2E1 selected by phage display on an IL-18 peptide epitope.

In assay [4] the target is T1, recombinant human IL-18 (rhIL-18). Kind of assay: cell-based or functional assay.
Assay [5] shares this target. In words: SPR (BIAcore), biotinylated rhIL-18, scFv.
The target is the same in assay [6]. Kind of assay: SPR (BIAcore), biotinylated rhIL-18 on streptavidin chip.
For assay [7] the target is unchanged. In words: cell-based or functional assay. This is another data set of the same source.

Changes are numbered by the printed parent chain. In names and notes the source's numbering stands.

B1: 2E1 (parent) ScFv (scFv, V domains shown)
VH: QVQLVQSGAEVKKPGASMKVSCKTSGYTFTGYYIHWVRQAHGQGFEWIGRLNPTTGDANFAEKFQGRVALTRDTSISTAYLQLDSLKSDDTAVYYCAGKEGAWGQGTLVTVSS
VL: SSELTQDPAVSVALGQTVRITCQGDSLRHFYPNWYQQKPGQAPVLVIYGKNNRPSGIPDRFSGSGSGNTGSLTITGAQAEDEADYYCGSRDSSGIHVVFGGGTKVTVLG
notes: Tested as single-chain Fv; also called single chain Fv version of antibody 2E1; 2E1 single chain antibody
In the case of B1, in assay [1], the kon came to 2600 M⁻¹ s⁻¹. The binding result in assay [2] and in assay [3] was “binds” in each case. In assay [4], the “IC50 Value, KG-1 cell-based IL-18 neutralization assay (hIFN-gamma)” value (“IC50 Value” for short) was 33 nM.

B2: 2E1 mutant L34S + H53R (2E1RS) (scFv, V domains shown)
VH: B1 VH with T54R
VL: B1 VL with N33S
For B2, in assay [1], the dissociation constant (Kd) was 23 nM, the koff came out at 6.82e-05 s⁻¹ and the kon was found to be 2700 M⁻¹ s⁻¹. For the same molecule, the “fold improvement over the parent antibody 2E1” value in assay [5] was greater than 10 fold. In addition, the “fold improvement over the parent antibody 2E1 (BIAcore analysis)” value in assay [6] was greater than 10 fold. Also, in assay [4], the “IC50 Value” value was determined as 3 nM. Further, the “fold improvement over the parent antibody 2E1, KG-1 cell-based assay” value in assay [7] was greater than 10 fold.

B3: 2E1 mutant L34S (scFv, V domains shown)
VH: B1 VH
VL: B1 VL with N33S
Regarding B3, the koff in assay [1] worked out at 0.000169 s⁻¹. Also, the “IC50 Value” value in assay [4] was 15 nM.

B4: 2E1 mutant L34S + H53Y (scFv, V domains shown)
VH: B1 VH with T54Y
VL: B1 VL with N33S
As to B4, in assay [1], the koff turned out to be 5.28e-05 s⁻¹. In addition, the “IC50 Value” value in assay [4] was determined as 6.7 nM.

B5: 2E1 (parent) IgG (antibody, V domains shown)
VH: B1 VH
VL: B1 VL
In the case of B5, the “IC50 Value” value in assay [4] was found to be 0.9 nM.

B6: 2E1 mutant L34S + H53R + H58Q (scFv, V domains shown)
VH: B1 VH with T54R, N59Q
VL: B1 VL with N33S
For the molecule B6, in assay [1], the koff was determined as 6.18e-05 s⁻¹. Also, the “IC50 Value” value in assay [4] is 2.8 nM.

B7: 2E1 mutant H53R (scFv, V domains shown)
VH: B1 VH with T54R
VL: B1 VL
Turning to B7, the koff in assay [1] was 0.00234 s⁻¹. For the same molecule, in assay [4], the “IC50 Value” value was found to be 25 nM.

A word on the kon: it is the second-order rate constant of association. What is called Kd is the free concentration of one partner at which half of the binding sites on the other are occupied at equilibrium, for simple one-to-one binding. The koff is the first-order rate constant of dissociation.
